Consider 1 substance from doi:10.1101/2025.07.28.667166.

What all share (assay): NMR
One data set concerns the target Cys31 (UniProt position 31, FGTDWCGHCQA). The following applies: 298 K; reduced (with DTT), 1 mM protein.
The target in another data set is Cys34 (UniProt position 34, DWCGHCQAAQP). To be noted: 298 K; reduced (with DTT), 1 mM protein.
The target in the next data set is His33 (UniProt position 33, TDWCGHCQAAQ). The following applies: 298 K, 1 mM protein.

Regarding “Patrx2 (atypical thioredoxin, PA2694) (Pseudomonas aeruginosa)”, the pKa in the data set with Cys31 was 5.8; with Cys34 it was “greater than 11.0”; with His33 (oxidised (C31-C34 disulfide, without DTT)), “less than 5”; with His33 (reduced (with DTT)), 6.3.
